Reference: PMC2852889

Molecular target: human serum amyloid P (human), P02743
Experiment: SPR
Conditions: remark: other sources report otherwise

human serum amyloid P (human), P02743, sequence (P02743 20-223): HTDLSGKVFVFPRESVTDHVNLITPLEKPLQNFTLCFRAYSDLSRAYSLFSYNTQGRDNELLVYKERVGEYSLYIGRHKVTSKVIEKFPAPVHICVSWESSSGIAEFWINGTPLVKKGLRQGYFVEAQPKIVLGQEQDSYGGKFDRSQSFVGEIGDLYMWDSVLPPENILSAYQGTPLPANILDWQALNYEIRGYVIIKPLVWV

Kd: 0.37 nM
B1: hFcγRIIIB, O75015 17-200 (receptor)
chain: GMRTEDLPKAVVFLEPQWYSVLEKDSVTLKCQGAYSPEDNSTQWFHNENLISSQASSYFIDAATVNDSGEYRCQTNLSTLSDPVQLEVHIGWLLLQAPRWVFKEEDPIHLRCHSWKNTALHKVTYLQNGKDRKYFHHNSDFHIPKATLKDSGSYFCRGLVGSKNVSSETVNITITQGLAVSTIS
